Source: patent US20200078469A1, “HEPARIN-PEPTIDE BIOCONJUGATES AND USES THEREOF” (Symic IP, LLC, priority 2015, published 2020)
Ends that are not written are not given here.

Target: collagen
Experiment: Collagen-binding plate assay
Details: compared to Hep-SILY that does not contain aggregates
Method: The following method is used to assess the binding affinity of bioconjugates disclosed herein for collagen. Similar assays are employed to assess binding affinity of other targets (e.g., hyaluronic acid, ICAM, VCAM, selectin).
Collagen-binding of bioconjugate variants was compared by a plate-assay, in which collagen was coated on 96-well plates. Collagen was coated on high-bind plates at 50 μg/mL in 0.02 N acetic acid for 1 hour at room temperature. Unbound collagen was rinsed with 1×PBS pH 7.4. Plates were then blocked in 1% milk in 1×PBS solution for 1 hour at room temperature.
Bioconjugate variants containing biotinlyated peptides were dissolved to a final concentration of 1 mg/mL in 1% milk in 1×PBS pH 7.4. From this solution, a 10× serial dilution was performed. Molecules were then incubated on the blocked collagen-coated plates and incubated for 15 minutes at room temperature. Plates were then rinsed 3 times with 1×PBS in 1% BSA and 0.2% Tween20.
Bound molecules were detected by streptavidin-HRP, which was diluted 1:500 in 1×PBS with 1% BSA and 0.2% Tween20 and incubated 200 μL/well for 20 minutes at room temperature. Streptavidin solution was rinsed from the plates 3 times with 1×PBS with 0.2% Tween20. […] Absorbance in the well was then measured at 450 nm and binding affinity was plotted in a dose-response by absorbance vs. concentration.

B1: Hep-SILY containing aggregates: Hep-SILY made with modified purification, containing ionically interacting non-covalently bound SILY peptide; high molecular weight aggregates (conjugate)
peptide 1: RRANAALKAGELYKSILYGSG
peptide 2: RRANAALKAGELYKSILYGSG
peptide 3: RRANAALKAGELYKSILYGSG
modifications: also: conjugated to heparin (glycan) via hydrazide-carbonyl linkage, non-covalent high molecular weight aggregates
collagen binding affinity (EC50): higher affinity (lower EC50 values)
